Target: wild-type (WT) RBD of the SARS-CoV-2 spike protein (SARS-CoV-2, UniProt P0DTC2)
Experiment: ITC

Binder	Kd [nM]
REGN-10987 ScFv (scFv, V domains shown) VH: QVQLVESGGGVVQPGRSLRLSCAASGFTFSNYAMYWVRQAPGKGLEWVAVISYDGSNKYYADSVKGRFTISRDNSKNTLYLQMNSLRTEDTAVYYCASGSDYGDYLLVYWGQGTLVTVSS VL: QSALTQPASVSGSPGQSITISCTGTSSDVGGYNYVSWYQQHPGKAPKLMIYDVSKRPSGVSNRFSGSKSGNTASLTISGLQSEDEADYYCNSLTSISTWVFGGGTKLTVL	34.3 ± 8.1
LY-CoV555 ScFv (scFv, V domains shown) VH: QVQLVQSGAEVKKPGSSVKVSCKASGGTFSNYAISWVRQAPGQGLEWMGRIIPILGIANYAQKFQGRVTITADKSTSTAYMELSSLRSEDTAVYYCARGYYEARHYYYYYAMDVWGQGTAVTVSS VL: not shown	3.8 ± 1.9

Source: publication doi:10.1101/2021.12.23.474050 (bioRxiv, 2021)
